In patent publication US20150132277A1 (Scripps Research, published 2015):

B2: VE-Cadherin extracellular domain EC1 (residues 48-155 of full-length VE-Cadherin), tag-free (other)
chain: DWIWNQMHIDEEKNTSLPHHVGKIKSSVSRKNAKYLLKGEYVGKVFRVDAETGDVFAIERLDRENISEYHLTAVIVDKDTGENLETPSSFTIKVHDVNDNWPVFTHRL
notes: Expressed as a GST fusion; also called VE-EC1; VE-Cadherin EC1 domain
B3: human T2-WRS (residues 94-471 of full-length tryptophanyl-tRNA synthetase) with C-terminal His6 tag (enzyme)
chain: SAKGIDYDKLIVRFGSSKIDKELINRIERATGQRPHHFLRRGIFFSHRDMNQVLDAYENKKPFYLYTGRGPSSEAMHVGHLIPFIFTKWLQDVFNVPLVIQMTDDEKYLWKDLTLDQAYSYAVENAKDIIACGFDINKTFIFSDLDYMGMSSGFYKNVVKIQKHVTFNQVKGIFGFTDSDCIGKISFPAIQAAPSFSNSFPQIFRDRTDIQCLIPCAIDQDPYFRMTRDVAPRIGYPKPALLHSTFFPALQGAQTKMSASDPNSSIFLTDTAKQIKTKVNKHAFSGGRDTIEEHRQFGGNCDVDVSFMYLTFFLEDDDKLEQIRKDYTSGAMLTGELKKALIEVLQPLIAEHQARRKEVTDEIVKEFMTPRKLSFDFQHHHHHH
notes: In monomer-dimer equilibrium; also called WT T2-WRS; WT T2-TrpRS

What was measured:
[1] = biological target: B2; test: SPR (Biacore), T2-WRS variant amine-coupled to CM5 chip, EC1 domain in flow, 0.1 mM ZnCl2, kinetic titration fitting; monomer F260EY201EI278E T2-WRS on the chip, EC1 in flow
[2] = biological target: B3; test: SPR (Biacore), T2-WRS amine-coupled to CM5 chip, EC1 domain in flow, 0.1 mM ZnCl2, kinetic titration fitting; WT T2-WRS on the chip, EC1 in flow
[3] = biological target: the molecule itself; test: size exclusion chromatography, percent dimer plotted against protein concentration; dimer-monomer dissociation constant
[4] = biological target: the molecule itself; test: size exclusion chromatography, 100 nM to 10 uM; percentage of dimers against concentration; dimer-monomer dissociation constant
[5] = biological target: the molecule itself; test: disulfide crosslinking across the dimer interface, SDS-PAGE with and without DTT
Protocol: All proteins were expressed and purified as mentioned above, except that no beta-mercaptoethanol was added. The purified proteins were diluted to 1 mg/ml in 25 mM HEPES (pH7.5, 150 mM NaCl) and incubated for 15 minutes at 4° C. with or without 10 mM DTT (dithiothreitol). Proteins samples (10 μl) were mixed with an equal amount of 2× loading buffer (without reducing reagent) and boiled for 1 min before loading onto a SDS-PAGE gel.

[6] = biological target: the molecule itself; test: gel chromatography with immunoblotting of fractions (YRS polyclonal antibody); dimer-monomer equilibrium
Protocol: (§1) Each protein sample (200 μl of 20 μM) was injected to Superdex 200 chromatography column (GE Healthcare, 10/300GL) in PBS containing 5 mM β-mercaptoethanol. The column was then calibrated by standard proteins. […] To determine the dissociation constant for dimer-monomer equilibrium, gel chromatography was carried out as a function of protein concentration.

[7] = biological target: the molecule itself; test: gel chromatography; dimer-monomer equilibrium, reference Δ159-161 mini-YRS
Protocol: as §1

[8] = biological target: the molecule itself; test: gel filtration chromatography as a function of protein concentration; dimer-monomer equilibrium
Protocol: as §1

[9] = biological target: the molecule itself; test: Superdex 200 gel filtration, 0.5-2 µM, self-association
Protocol: E. coli Flavodoxin was inserted at the position of G310 on the peripheral region of the KRS dimer interface. The linker was kept short to reduce the potential structural flexibility. […] All proteins were loaded at a concentration range of 0.5-2 μM. […] BSA is bovine serum albumin.
The peak fractions were analyzed by SDS-PAGE and visualized by Coomassie blue staining.

B1: F260EY201EI278E T2-WRS variant (stable monomer) (enzyme)
chain: SAKGIDYDKLIVRFGSSKIDKELINRIERATGQRPHHFLRRGIFFSHRDMNQVLDAYENKKPFYLYTGRGPSSEAMHVGHLIPFIFTKWLQDVFNVPLVIQMTDDEKELWKDLTLDQAYSYAVENAKDIIACGFDINKTFIFSDLDYMGMSSGFYKNVVKIQKHVTENQVKGIFGFTDSDCIGKESFPAIQAAPSFSNSFPQIFRDRTDIQCLIPCAIDQDPYFRMTRDVAPRIGYPKPALLHSTFFPALQGAQTKMSASDPNSSIFLTDTAKQIKTKVNKHAFSGGRDTIEEHRQFGGNCDVDVSFMYLTFFLEDDDKLEQIRKDYTSGAMLTGELKKALIEVLQPLIAEHQARRKEVTDEIVKEFMTPRKLSFDFQHHHHHH
notes: Residue numbers of the mutations are those of full-length WRS; also called monomer T2-WRS; T2-WRS (F260EY201EI278E)
- Kd [1]: 1340 nM

Binder: B2
- Kd [2]: 1520 nM

Binder: B3
- Kd [3]: 472 nM
- Kd [4]: 437 nM

B4: Flavo-KRS (70-584) with T285C mutation (enzyme)
chain: SVDPNQYYKIRSQAIHQLKVNGEDPYPHKFHVDISLTDFIQKYSHLQPGDHLTDITLKVAGRIHAKRASGGKLIFYDLRGEGVKLQVMANSRNYKSEEEFIHINNKLRRGDIIGVQGNPGKTKKGELSIIPYEITLLSPCLHMLPHLHFGLKDKETRYRQRYLDLILNDFVRQKFIIRSKIITYIRSFLDELGFLEIETPMMNIIPGGAVAKPFICYHNELDMNLYMRIAPELYHKMLVVGNMGLFYGSSTCYTEMAAEKIRDIIGPELVTLHNLKDDSPKLMEQYDVLILGIPTWDFGEIQEDWEAVWDQLDDLNLEGKIVALYGLGDQLGYGEWFLDALGMLHDKLSTKGVKFVGYWPTEGYEFTSPKPVIADGQLFVGLALDETNQYDLSDERIQSWCEQILNEMARVYEIGRQFRNEGIDLTHNPEFTTCEFYMAYADYHDLMEITEKMVSGMVKHITGSYKVTYHPDGPEGQAYDVDFTPPFRRINMVEELEKALGMKLPETNLFETEETRKILDDICVAKAVECPPPRTTARLLDKLVGEFLEVTCINPTFICDHPQIMSPLAKWHRSKEGLTERFELFVMKKEICNAYTELNDPMRQRQLFEEQAKAKAAGDDEAMFIDENFCTALEYGLPPTAGWGMGIDRVAMFLTDSNNIKEVLLFPAMKPEDKKENVATAGHHHHHH
notes: also called T285C Flavo-KRS
- binding result [5]: no binding

B5: wild-type (WT) human mini-YRS (N-terminal fragment of human tyrosyl-tRNA synthetase) (enzyme)
chain: MGDAPSPEEKLHLITRNLQEVLGEEKLKEILKERELKIYWGTATTGKPHVAYFVPMSKIADFLKAGCEVTILFADLHAYLDNMKAPWELLELRVSYYENVIKAMLESIGVPLEKLKFIKGTDYQLSKEYTLDVYRLSSVVTQHDSKKAGAEVVKQVEHPLLSGLLYPGLQALDEEYLKVDAQFGGIDQRKIFTFAEKYLPALGYSKRVHLMNPMVPGLTGSKMSSSEEESKIDLLDRKEDVKKKLKKAFCEPGNVENNGVLSFIKHVLFPLKSEFVILRDEKWGGNKTYTAYVDLEKDFAAEVVHPGDLKNSVEVALNKLLDPIREKFNTPALKKLASAAYPDPSKQKPMAKGPAKNSEPEEVI
notes: In monomer-dimer equilibrium; also called WT mini-YRS; mini-tyrosyl tRNA synthetase
- Kd [6]: ~100 nM
- fold lower dimer-monomer dissociation constant than Δ159-161 [7]: ~1000 fold

B6: non-associating monomeric Δ159-161 variant of mini-YRS (enzyme)
chain: MGDAPSPEEKLHLITRNLQEVLGEEKLKEILKERELKIYWGTATTGKPHVAYFVPMSKIADFLKAGCEVTILFADLHAYLDNMKAPWELLELRVSYYENVIKAMLESIGVPLEKLKFIKGTDYQLSKEYTLDVYRLSSVVTQHDSKKAGAEVVKQVEHSGLLYPGLQALDEEYLKVDAQFGGIDQRKIFTFAEKYLPALGYSKRVHLMNPMVPGLTGSKMSSSEEESKIDLLDRKEDVKKKLKKAFCEPGNVENNGVLSFIKHVLFPLKSEFVILRDEKWGGNKTYTAYVDLEKDFAAEVVHPGDLKNSVEVALNKLLDPIREKFNTPALKKLASAAYPDPSKQKPMAKGPAKNSEPEEVI
notes: also called the monomer
- Kd [8]: ~100000 nM

B7: truncated human KRS (residues 70-584 of full-length lysyl-tRNA synthetase) with C-terminal 6xHis tag (enzyme)
chain: not shown
notes: Homodimer (alpha2) in solution; also called native human KRS (70-584); native KRS
- binding result [9]: binds

B8: native human KRS (70-584) with T285C mutation (enzyme)
chain: not shown
modifications: disulfide between Cys 285 of the two subunits in the absence of DTT
notes: also called native KRST285C
- binding result [5]: binds
